According to patent US11708423B2, “Chimeric engulfment receptor molecules and methods of use” (CERO THERAPEUTICS, INC., priority 2017, dated 2023):

Experiments:
[1] = tested on: H1975 NSCLC cells; assay: LDH-based cytotoxicity, H1975 cells, 18 hours co-culture; assay type: cell-based; details: Osimeritinib 0, 500, 1000 nM, E:T 2:1 or 5:1
Experimental: H1975 NSCLC cells were co-cultured with CER123- or CER126-expressing CD4+ T cells with increasing concentrations of Osimeritnib (0, 500 nM, or 1000 nM). Mock-transduced (vector only) T cells were used as control. Assays were performed using CER modified T cells purified by FACS using an EGFR specific antibody 7 days after activation using CD3 & CD28 microbeads. CER modified T cells and H1975 cells were co-cultured at effector:target cell ratios of 2:1 or 5:1. After 18 hours of co-culture, bulk supernatants were evaluated using LDH-based cytotoxicity assay.

[2] = tested on: SCC152 cells; assay: Magnitude breadth of phagocytosis by CER-transduced CD4+ T cells; assay type: cell-based, human; details: CD4+ T cells
Experimental: Various CER-modified CD4+ T cells were also evaluated for breadth of response to determine whether a particular CER confers a broad phagocytic response of low magnitude (e.g., 10% engulfment in 90% of cells) or a less frequent but strong phagocytic response (e.g., 90% engulfment in 10% of cells) in the host cells. CD8+ T cells were transduced with HPV16 E7 specific TCR as described in Example 5. CD4+ T cells were transduced with lentiviral vectors comprising a CER21, CER27, CER104, CER116, or CER117 nucleic acid. Mock-transduced (vector alone) CD4+ T cell were used as control. CD4+/CER+ and CD8+/E7 TCR+ T cells were stained with CELLTRACE violet. […] HPV16 E7 TCR transduced CD8+ T cells and selected CER transduced CD4+ T cells were mixed at a 1:1 ratio and co-cultured with SCC152 cells at a 1:1 ratio for 8 hours. Phagocytosis of target SCC152 cells by CER-transduced CD4+ T cells was analyzed by fluorescence microscopy. […] The horizontal axis represents the % area of CER-transduced CD4+ T cells having engulfment or % area of […]. This measure was rarely above 40% across CER types tested. The vertical axis represents the proportion of CER-transduced CD4+ T cells that were phagocytic. For CER104, about 20% of CER104-transduced CD4+ T cells have more than 10% engulfment. For CER117-transduced CD4+ T cells, less than 10% have more than 10% engulfment.

[3] = tested on: HCC159 lung adenocarcinoma cells; assay: LDH-based cytotoxicity, HCC159 cells; assay type: cell-based; details: Osimeritinib 0, 1, 5 nM; E:T 2:1 or 5:1; 18 hours
Experimental: HCC159 lung adenocarcinoma cells were co-cultured with CER123- or CER126-expressing CD4+ T cells with increasing concentrations of Osimeritnib (0, 1 nM, 5 nM). After 18 hours of co-culture, bulk supernatants were evaluated using a LDH-based cytotoxicity assay. T cells assays were performed using purified, EGFR^+ (transduction marker), CER modified T cells 7 days after activation using CD3 & CD28 microbeads at effector:target cell ratios of 2:1 or 5:1. Control “Mock” T cells were transduced with vector alone. […] Bulk supernatants were also analyzed after 18 hours of co-culture for Interferon Gamma (IFNγ) secretion (FIG. 50). Control “Mock” T cells were transduced with vector alone.

B1: CER126: Tim4 binding and transmembrane domains, TLR2 primary and TRAF2 secondary signaling domains; SEQ ID NO:174 (protein)
chain: MSKGLLLLWLVTELWWLYLTPAASEDTIIGFLGQPVTLPCHYLSWSQSRNSMCWGKGSCPNSKCNAELLRTDGTRIISRKSTKYTLLGKVQFGEVSLTISNTNRGDSGVYCCRIEVPGWFNDVKKNVRLELRRATTTKKPTTTTRPTTTPYVTTTTPELLPTTVMTTSVLPTTTPPQTLATTAFSTAVTTCPSTTPGSFSQETTKGSAFTTESETLPASNHSQRSMMTISTDIAVLRPTGSNPGILPSTSQLTTQKTTLTTSESLQKTTKSHQINSRQTILIIACCVGFVLMVLLFLAFLHRFHGLWYMKMMWAWLQAKRKPRKAPSRNICYDAFVSYSERDAYWVENLMVQELENFNPPFKLCLHKRDFIPGKWIIDNIIDSIEKSHKTVFVLSENFVKSEWCKYELDFSHFRLFDENNDAAILILLEPIEKKAIPQRFCKLRKIMNTKTYLEWPMDEAQREGFWVNLRAAIKSMAAASVTPPGSLELLQPGFSKTLLGTKLEAKYLCSACRNVLRRPFQAQCGHRYCSFCLASILSSGPQNCAACVHEGIYEEGISILESSSAFPDNAARREVESLPAVCPSDGCTWKGTLKEYESCHEGRCPLMLTECPACKGLVRLGEKERHLEHECPERSLSCRHCRAPCCGADVKAHHEVCPKFPLTCDGCGKKKIPREKFQDHVKTCGKCRVPCRFHAIGCLETVEGEKQQEHEVQWLREHLAMLLSSVLEAKPLLGDQSHAGSELLQRCESLEKKTATFENIVCVLNREVERVAMTAEAC
modifications: CER126 protein
cell killing of H1975 cells (LDH) [1]: inducible cell killing responses | engulfment of SCC152 target cells (fluorescent micrograph) [2]: SCC152 target cells engulfed | cell killing of HCC159 cells (LDH) [3]: inducible cell killing responses
